{
  "source": "paper PMC4530586",
  "about": "“STIL binding to Polo-box 3 of PLK4 regulates centriole duplication” (eLife, 2015)",
  "binders": {"B1": {"name": "synthetic STIL-CC peptide (peptide, UniProt Q15468 720-751, looked up)", "peptide": "PDAYRFLTEQDRQLRLLQAQIQRLLEAQSLMP", "notes": "also called synthetic peptide corresponding to STIL-CC; source: synthetic peptide"}},
  "biological_target": "T1, human PLK4-PB3 (884–970), recombinant (human, UniProt O00444 884-970)",
  "T1 construct": "PLK4, human, residues 884–970 (Polo-box 3); isotope-labelled (2H, 15N, 13C) samples were used for NMR; also called Polo-box 3; source: E. coli BL21 DE3, purified (nickel resin, TEV cleavage, Superdex75 SEC); not shown: thioredoxin, N-terminal, cleaved; His6, N-terminal, cleaved",
  "T1 sequence (looked up)": "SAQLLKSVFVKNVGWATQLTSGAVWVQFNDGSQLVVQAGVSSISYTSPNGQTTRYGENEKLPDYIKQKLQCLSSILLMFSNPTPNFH",
  "assay": "ITC; synthetic STIL-CC peptide (414 µM) titrated into recombinant PB3 (35.5 µM); 50 mM Hepes pH 8.0, 150 mM NaCl, 1 mM TCEP; 25°C; 30 injections of 10 µl; one-site binding model",
  "conditions": "both partners purified",
  "data": [
    {"binder": "B1", "values": [
      {"measurement": "Kd", "result": "280 ± 60", "unit": "nM"},
      {"measurement": "stoichiometry N", "result": 1}
    ]}
  ]
}
